Where no end group is shown, it is not given here.
Target: T1, recombinant Psb28 (from pIVEXPsb28His) (T. elongatus, UniProt Q8DLJ8 2-116)
T1 sequence: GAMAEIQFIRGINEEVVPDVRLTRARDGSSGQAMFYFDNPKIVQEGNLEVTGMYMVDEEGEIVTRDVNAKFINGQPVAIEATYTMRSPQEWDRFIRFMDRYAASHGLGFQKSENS
Assay: NMR titration

Kd: 53.92 ± 0.41 µM
koff: 10.1 ± 0.16 s⁻¹
Binder: Ac-SGIDPELSPEQVEWGFYQKV [carboxy-terminal peptide from residues 480-499 of CP47]

From doi:10.1101/2020.09.14.294884 (bioRxiv, 2020)
